Experimental data as given in patent publication US20200199241A1 (Chugai, published 2020).
Changes are numbered by the printed parent chain.

B1: IgG1-F890 (antibody)
heavy: QVQLQESGPGLVKPSETLSLTCAVSGHSISHDHAWSWVRQPPGEGLEWIGFISYSGITNYNPSLQGRVTISRDNSKNTLYLQMNSLRAEDTAVYYCARSLARTTAMDYWGEGTLVTVSSASTKGPSVFPLAPSSKSTSGGTAALGCLVKDYFPEPVTVSWNSGALTSGVHTFPAVLQSSGLYSLSSVVTVPSSSLGTQTYICNVNHKPSNTKVDKKVEPKSCDKTHTCPPCPAPELLGGPSVFLFPPKPKDTLYISRTPEVTCVVVDVSHEDPEVKFNWYVDGVEVHNAKTKPREEQYNSTYRVVSVLTVLHQDWLNGKEYKCKVSNKALPAPIEKTISKAKGQPREPQVYTLPPSRDELTKNQVSLTCLVKGFYPSDIAVEWESNGQPENNYKTTPPVLDSDGSFFLYSKLTVDKSRWQQGNVFSCSVMHEALHYHVTQKSLSLSP
light: not shown
notes: copies: 2 + 2
B2: IgG1-F753 (antibody)
heavy: B1 heavy with P240D, T252Q, V438Y
light: not shown
notes: EU numbering; copies: 2 + 2
B3: IgG1-F766 (antibody)
heavy: B1 heavy with Y254M, T309A, L311E, Q313A, V438Y
light: not shown
notes: EU numbering; copies: 2 + 2
B4: IgG1-F758 (antibody)
heavy: B1 heavy with P240D, T252Y, V438Y
light: not shown
notes: EU numbering; copies: 2 + 2
B5: IgG1-F765 (antibody)
heavy: B1 heavy with P240D, T309Q, L311E, Q313A, V438Y
light: not shown
notes: EU numbering; copies: 2 + 2
B6: IgG1-F762 (antibody)
heavy: B1 heavy with L237K, S241K, N288E, T309Q, Q313A, V438Y
light: not shown
notes: EU numbering; copies: 2 + 2
B7: IgG1-F756 (antibody)
heavy: B1 heavy with P240D, T252V, V438Y
light: not shown
notes: EU numbering; copies: 2 + 2
B8: IgG1-F749 (antibody)
heavy: B1 heavy with P240D, T252L, V438Y
light: not shown
notes: EU numbering; copies: 2 + 2
B9: IgG1-F746 (antibody)
heavy: B1 heavy with P240D, T252H, V438Y
light: not shown
notes: EU numbering; copies: 2 + 2
B10: IgG1-F747 (antibody)
heavy: B1 heavy with P240D, T252I, V438Y
light: not shown
notes: EU numbering; copies: 2 + 2
B11: IgG1-F750 (antibody)
heavy: B1 heavy with P240D, T252M, V438Y
light: not shown
notes: EU numbering; copies: 2 + 2
B12: IgG1-F763 (antibody)
heavy: B1 heavy with L237R, S241K, N288E, T309Q, Q313A, V438Y
light: not shown
notes: EU numbering; copies: 2 + 2
B13: IgG1-F764 (antibody)
heavy: B1 heavy with P240D, Y254M, T309Q, Q313A, V438Y
light: not shown
notes: EU numbering; copies: 2 + 2
B14: IgG1-F757 (antibody)
heavy: B1 heavy with P240D, T252W, V438Y
light: not shown
notes: EU numbering; copies: 2 + 2
B15: IgG1-F751 (antibody)
heavy: B1 heavy with P240D, T252N, V438Y
light: not shown
notes: EU numbering; copies: 2 + 2
B16: IgG1-F692 (antibody)
heavy: B1 heavy with K290Q, V310P, V438Y
light: not shown
notes: EU numbering; copies: 2 + 2
B17: IgG1-F720 (antibody)
heavy: B1 heavy with T309Q, V310P, Q313A, V438Y
light: not shown
notes: EU numbering; copies: 2 + 2
B18: IgG1-F737 (antibody)
heavy: B1 heavy with S269L, L330E, V438Y
light: not shown
notes: EU numbering; copies: 2 + 2
B19: IgG1-F723 (antibody)
heavy: B1 heavy with P240D, L330D, V438Y
light: not shown
notes: EU numbering; copies: 2 + 2
B20: IgG1-F694 (antibody)
heavy: B1 heavy with K290V, V310P, V438Y
light: not shown
notes: EU numbering; copies: 2 + 2
B21: IgG1-F710 (antibody)
heavy: B1 heavy with P240D, N288E, T309Q, Q313A, M430I, V438Y
light: not shown
notes: EU numbering; copies: 2 + 2
B22: IgG1-F697 (antibody)
heavy: B1 heavy with S241K, V310P, N327G, V438Y
light: not shown
notes: EU numbering; copies: 2 + 2
B23: IgG1-F693 (antibody)
heavy: B1 heavy with K290R, V310P, V438Y
light: not shown
notes: EU numbering; copies: 2 + 2
B24: IgG1-F740 (antibody)
heavy: B1 heavy with T309P, Q313H, V438Y
light: not shown
notes: EU numbering; copies: 2 + 2
B25: IgG1-F708 (antibody)
heavy: B1 heavy with N288E, T309Q, V310P, Q313A, M430I, V438Y
light: not shown
notes: EU numbering; copies: 2 + 2
B26: IgG1-F733 (antibody)
heavy: B1 heavy with L330E, V438Y
light: not shown
notes: EU numbering; copies: 2 + 2
B27: IgG1-F731 (antibody)
heavy: B1 heavy with Y254M, T309A, Q313H, V438Y
light: not shown
notes: EU numbering; copies: 2 + 2
B28: IgG1-F739 (antibody)
heavy: B1 heavy with T309P, Q313A, V438Y
light: not shown
notes: EU numbering; copies: 2 + 2
B29: IgG1-F738 (antibody)
heavy: B1 heavy with P240D, T309P, V438Y
light: not shown
notes: EU numbering; copies: 2 + 2
B30: IgG1-F744 (antibody)
heavy: B1 heavy with P240D, T252F, V438Y
light: not shown
notes: EU numbering; copies: 2 + 2
B31: IgG1-F700 (antibody)
heavy: B1 heavy with V310P, L330E, V438Y
light: not shown
notes: EU numbering; copies: 2 + 2
B32: IgG1-F709 (antibody)
heavy: B1 heavy with S241K, N288E, T309Q, Q313A, M430I, V438Y
light: not shown
notes: EU numbering; copies: 2 + 2
B33: IgG1-F729 (antibody)
heavy: B1 heavy with Y254M, T309A, Q313A, V438Y
light: not shown
notes: EU numbering; copies: 2 + 2
B34: IgG1-F711 (antibody)
heavy: B1 heavy with S241K, T309Q, Q313A, V438Y
light: not shown
notes: EU numbering; copies: 2 + 2
B35: IgG1-F716 (antibody)
heavy: B1 heavy with P240D, N327L, V438Y
light: not shown
notes: EU numbering; copies: 2 + 2
B36: IgG1-F695 (antibody)
heavy: B1 heavy with K290W, V310P, V438Y
light: not shown
notes: EU numbering; copies: 2 + 2
B37: IgG1-F725 (antibody)
heavy: B1 heavy with L237K, G239R, S241K, V310P, V438Y
light: not shown
notes: EU numbering; copies: 2 + 2
B38: IgG1-F730 (antibody)
heavy: B1 heavy with Y254M, T309Q, Q313A, V438Y
light: not shown
notes: EU numbering; copies: 2 + 2
B39: IgG1-F705 (antibody)
heavy: B1 heavy with N288E, V310P, M430I, V438Y
light: not shown
notes: EU numbering; copies: 2 + 2
B40: IgG1-F696 (antibody)
heavy: B1 heavy with K290Y, V310P, V438Y
light: not shown
notes: EU numbering; copies: 2 + 2
B41: IgG1-F699 (antibody)
heavy: B1 heavy with S241K, N288E, T309Q, Q313A, V438Y
light: not shown
notes: EU numbering; copies: 2 + 2
B42: IgG1-F734 (antibody)
heavy: B1 heavy with G238D, L330E, V438Y
light: not shown
notes: EU numbering; copies: 2 + 2
B43: IgG1-F715 (antibody)
heavy: B1 heavy with P240D, N327M, V438Y
light: not shown
notes: EU numbering; copies: 2 + 2
B44: IgG1-F714 (antibody)
heavy: B1 heavy with P240D, N327S, V438Y
light: not shown
notes: EU numbering; copies: 2 + 2
B45: IgG1-F718 (antibody)
heavy: B1 heavy with P240D, Q297M, V438Y
light: not shown
notes: EU numbering; copies: 2 + 2
B46: IgG1-F719 (antibody)
heavy: B1 heavy with P240D, N327G, V438Y
light: not shown
notes: EU numbering; copies: 2 + 2
B47: IgG1-F732 (antibody)
heavy: B1 heavy with Y254M, T309Q, Q313H, V438Y
light: not shown
notes: EU numbering; copies: 2 + 2
B48: IgG1-F726 (antibody)
heavy: B1 heavy with L237K, P240K, S241K, V310P, V438Y
light: not shown
notes: EU numbering; copies: 2 + 2
B49: IgG1-F712 (antibody)
heavy: B1 heavy with P240D, T309Q, Q313A, V438Y
light: not shown
notes: EU numbering; copies: 2 + 2
B50: IgG1-F741 (antibody)
heavy: B1 heavy with P240D, T252A, V438Y
light: not shown
notes: EU numbering; copies: 2 + 2
B51: IgG1-F736 (antibody)
heavy: B1 heavy with S269M, L330E, V438Y
light: not shown
notes: EU numbering; copies: 2 + 2
B52: IgG1-F713 (antibody)
heavy: B1 heavy with P240D, N288E, T309Q, Q313A, V438Y
light: not shown
notes: EU numbering; copies: 2 + 2
B53: IgG1-F745 (antibody)
heavy: B1 heavy with P240D, T252G, V438Y
light: not shown
notes: EU numbering; copies: 2 + 2
B54: IgG1-F717 (antibody)
heavy: B1 heavy with P240D, N327I, V438Y
light: not shown
notes: EU numbering; copies: 2 + 2
B55: IgG1-F698 (antibody)
heavy: B1 heavy with N288E, T309Q, Q313A, V438Y
light: not shown
notes: EU numbering; copies: 2 + 2
B56: IgG1-F706 (antibody)
heavy: B1 heavy with N288E, T309Q, Q313A, M430I, V438Y
light: not shown
notes: EU numbering; copies: 2 + 2
B57: IgG1-F707 (antibody)
heavy: B1 heavy with N288E, T309Q, V310P, Q313A, V438Y
light: not shown
notes: EU numbering; copies: 2 + 2
B58: IgG1-F721 (antibody)
heavy: B1 heavy with T309Q, V310P, Q313A, M430I, V438Y
light: not shown
notes: EU numbering; copies: 2 + 2
B59: IgG1-F724 (antibody)
heavy: B1 heavy with P240D, L330E, V438Y
light: not shown
notes: EU numbering; copies: 2 + 2

Biological target: T1, soluble human FcRn complexed with β2-microglobulin (human, UniProt P61769 21-119, limits assumed)
T1 construct: also called hFcRn
Experiment: Biacore SPR, pH 7.0;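 further: test antibodies captured on a Protein L chip with human FcRn flowed over as analyte, KD obtained as the ratio of dissociation to association rate constants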

T1 sequence (chain, as listed by the source limits assumed, chain 1 of 2): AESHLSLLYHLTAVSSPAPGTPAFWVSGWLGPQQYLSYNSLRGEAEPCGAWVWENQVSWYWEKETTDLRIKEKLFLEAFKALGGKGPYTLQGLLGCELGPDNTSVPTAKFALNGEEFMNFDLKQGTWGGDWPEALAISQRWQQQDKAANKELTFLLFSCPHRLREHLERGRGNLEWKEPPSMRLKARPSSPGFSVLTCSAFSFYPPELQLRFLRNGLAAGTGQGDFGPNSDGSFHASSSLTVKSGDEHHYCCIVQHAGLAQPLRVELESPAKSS
T1 sequence (P61769 21-119 limits assumed, chain 2 of 2): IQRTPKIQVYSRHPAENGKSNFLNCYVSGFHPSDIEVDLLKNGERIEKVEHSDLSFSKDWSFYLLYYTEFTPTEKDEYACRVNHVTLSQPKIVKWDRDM

Compared with B1, B2 is 1.6-fold higher in Kd: 110 nM for the first, 180 nM for the second.

Going from B3 to B4, the Kd rises from 600 nM to 1400 nM (2.3-fold).

Going from B5 to B6, the Kd falls from 85 nM to 36 nM (2.4-fold).

B7 and B8 are within 1.5-fold of each other in Kd: 370 nM for the first, 510 nM for the second.

Going from B9 to B10, the Kd falls from 600 nM to 280 nM (2.1-fold). The second binds more tightly here.

Going from B11 to B12, the Kd falls from 300 nM to 35 nM (8.6-fold). The second binds more tightly here.

First: B13
Second: B14
The Kd of the first is 1.9-fold lower: 630 nM for the first, 1200 nM for the second. The first binds more tightly here.

In the case of B15, the Kd is reported as 530 nM.

Biological target: T2, human FcRn (soluble human FcRn complexed with β2-microglobulin) (human, UniProt P61769 21-119, limits assumed)
T2 construct: also called hFcRn
Experiment: SPR, pH 7.0;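 further: antibodies captured on a Protein L sensor chip with human FcRn injected as analyte, KD calculated from fitted association and dissociation rate constants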

T2 sequence (chain, as listed by the source limits assumed, chain 1 of 2): as the sequence (chain, as listed by the source limits assumed, chain 1 of 2) above
T2 sequence (P61769 21-119 limits assumed, chain 2 of 2): as the sequence (P61769 21-119 limits assumed, chain 2 of 2) above

Going from B16 to B17, the Kd falls from 39 nM to 24 nM (1.6-fold). The second binds more tightly here.

B18 and B19 are within 1.5-fold of each other in Kd: 310 nM for the first, 280 nM for the second.

Compared with B20, B21 is 3.1-fold lower in Kd: 47 nM for the first, 15 nM for the second.

B22 and B23 are within 1.5-fold of each other in Kd: 31 nM for the first, 36 nM for the second.

Compared with B24, B25 is 71-fold lower in Kd: 290 nM for the first, 4.1 nM for the second.

Compared with B26, B27 is 2.7-fold higher in Kd: 320 nM for the first, 850 nM for the second.

First: B28
Second: B29
The Kd of the first is 1.6-fold lower: 220 nM for the first, 350 nM for the second.

First: B30
Second: B31
The Kd of the first is 19-fold higher: 990 nM for the first, 52 nM for the second. The second binds more tightly here.

First: B32
Second: B33
The Kd of the first is 46-fold lower: 20 nM for the first, 920 nM for the second.

Compared with B34, B35 is 4.2-fold higher in Kd: 65 nM for the first, 270 nM for the second. The first binds more tightly here.

B36 and B37 are within 1.5-fold of each other in Kd: 40 nM for the first, 42 nM for the second.

First: B38
Second: B39
The Kd of the first is 85-fold higher: 600 nM for the first, 7.1 nM for the second.

Compared with B40, B41 is 1.9-fold lower in Kd: 44 nM for the first, 23 nM for the second.

B42 and B43 are within 1.5-fold of each other in Kd: 310 nM for the first, 230 nM for the second.

B44 and B45 are within 1.5-fold of each other in Kd: 230 nM for the first, 280 nM for the second.

Compared with B46, B47 is 9.2-fold higher in Kd: 74 nM for the first, 680 nM for the second. The first binds more tightly here.

First: B48
Second: B49
The Kd of the first is 1.6-fold lower: 37 nM for the first, 60 nM for the second. The first binds more tightly here.

B50 and B51 are the same in Kd: 310 nM for the first, 310 nM for the second.

Going from B52 to B53, the Kd rises from 20 nM to 660 nM (33-fold).

Compared with B54, B55 is 12-fold lower in Kd: 260 nM for the first, 22 nM for the second. The second binds more tightly here.

First: B56
Second: B57
The Kd of the first is 3.1-fold higher: 18 nM for the first, 5.9 nM for the second.

Compared with B58, B59 is 17-fold higher in Kd: 15 nM for the first, 250 nM for the second. The first binds more tightly here.
